Drawing on patent US7235366 (dated 2007), this text covers Ki, binding result and IC50 for two molecules.

The target in experiment [1] is T1, mouse delta opioid receptor (mORD1, msl-2) (Mus musculus).
T1 chain: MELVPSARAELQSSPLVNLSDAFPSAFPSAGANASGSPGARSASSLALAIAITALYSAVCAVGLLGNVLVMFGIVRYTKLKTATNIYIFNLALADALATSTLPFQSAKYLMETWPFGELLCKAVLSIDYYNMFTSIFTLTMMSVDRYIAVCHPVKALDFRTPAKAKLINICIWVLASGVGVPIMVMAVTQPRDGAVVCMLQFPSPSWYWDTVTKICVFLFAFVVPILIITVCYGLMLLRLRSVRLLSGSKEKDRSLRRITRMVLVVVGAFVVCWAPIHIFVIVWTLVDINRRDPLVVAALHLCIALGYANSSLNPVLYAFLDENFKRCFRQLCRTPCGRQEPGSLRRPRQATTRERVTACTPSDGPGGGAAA
In words: competition.

In a further experiment the target is T2, MOP2 (Mus musculus).
T2 chain: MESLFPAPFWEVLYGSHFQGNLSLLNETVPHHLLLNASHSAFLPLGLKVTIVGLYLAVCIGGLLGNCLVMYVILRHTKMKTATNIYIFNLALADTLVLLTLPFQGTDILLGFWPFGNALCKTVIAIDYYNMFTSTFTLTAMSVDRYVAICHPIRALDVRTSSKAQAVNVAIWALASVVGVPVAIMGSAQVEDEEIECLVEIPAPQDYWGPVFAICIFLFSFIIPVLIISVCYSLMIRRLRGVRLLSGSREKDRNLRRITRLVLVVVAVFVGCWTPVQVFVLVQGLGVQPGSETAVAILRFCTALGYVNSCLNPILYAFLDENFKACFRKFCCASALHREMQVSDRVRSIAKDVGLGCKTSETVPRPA
Put plainly: other (direct radioligand binding).

The next experiment concerns the target T3, rat mu opioid receptor (Rattus norvegicus, UniProt P33535).
T3 chain: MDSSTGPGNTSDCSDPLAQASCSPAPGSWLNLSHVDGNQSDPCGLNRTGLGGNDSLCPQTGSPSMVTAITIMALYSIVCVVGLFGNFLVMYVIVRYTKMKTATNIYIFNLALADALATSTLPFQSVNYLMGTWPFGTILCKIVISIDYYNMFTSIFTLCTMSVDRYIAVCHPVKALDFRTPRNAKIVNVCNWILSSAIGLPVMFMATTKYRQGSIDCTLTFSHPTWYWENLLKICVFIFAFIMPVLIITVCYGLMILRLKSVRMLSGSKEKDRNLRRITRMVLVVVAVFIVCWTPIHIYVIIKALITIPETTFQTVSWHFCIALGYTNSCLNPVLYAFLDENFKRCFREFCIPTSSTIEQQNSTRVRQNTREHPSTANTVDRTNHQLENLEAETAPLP
Put plainly: competition.

The target in experiment [2] is T4, delta opioid receptor D128N mutant (Mus musculus).
T4 chain: T1 chain with D128N
Put plainly: other (direct radioligand binding).

The target in experiment [3] is T5, mouse kappa opioid receptor (mORK1, msl-1) (Mus musculus).
T5 chain: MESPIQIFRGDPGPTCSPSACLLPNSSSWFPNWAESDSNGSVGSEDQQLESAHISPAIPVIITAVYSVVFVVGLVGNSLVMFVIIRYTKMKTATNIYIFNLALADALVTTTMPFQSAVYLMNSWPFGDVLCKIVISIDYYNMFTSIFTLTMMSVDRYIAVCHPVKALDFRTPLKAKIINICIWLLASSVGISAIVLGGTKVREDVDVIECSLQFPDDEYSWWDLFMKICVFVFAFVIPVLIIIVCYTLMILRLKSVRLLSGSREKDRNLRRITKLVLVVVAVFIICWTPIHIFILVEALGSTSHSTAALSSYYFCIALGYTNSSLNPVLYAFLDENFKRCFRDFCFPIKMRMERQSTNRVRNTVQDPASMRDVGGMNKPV
In words: competition.

The target of experiment [4] is T1, mouse delta opioid receptor (mORD1, …). In words: competition.

For orientation: Ki means the dissociation constant of the complex between target and ligand, obtained from inhibition or displacement. The IC50 is the concentration that inhibits the measured activity by half. Low readings indicate inhibition by little substance, high ones a need for much substance.

Numbering of substitutions follows the chain as printed. Positions of bridges follow the written chain, without caps; N, C: chain ends. No end group written: not given here.

B1: beta-Endorphin (protein)
chain: WCLESSQCQDLTTESNLLECIRACKPDLSAETPMFPGNGDEQPLTENPRKYVMGHFRWDRFGRRNSSSSGSSGAGQKREDVSAGEDCGPLPEGGPEPRSDGAKPGPREGKRSYSMEHFRWGKPVGKKRRPVKVYPNGAEDESAEAFPLEFKRELTGQRLREGDGPDGPADDGAGAQADLEHSLLVAAEKKDEGPYRMEHFRWGSPPKDKRYGGFMTSEKSQTPLVTLFKNAIIKNAYKKGE
On to B1, for which the Ki (in experiment [1]; with rat mu opioid receptor) was 1 nM in each case. The binding result (with MOP2; in experiment [2]) was “no binding” each time.
Regarding SANSNPAMAPRERKAGCKNFFWKTFTSC (disulfide 17-28 (inferred)) [SRIF], the concentration for half-maximal inhibition (IC50) in experiment [3] and in experiment [4] was greater than 1000 nM in each case.
